The series can be described thus: yeast display, Sf9 membrane polyspecificity reagent, FACS + sequencing; frameworks hold sequencing errors. The method in brief: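 Nanobodies came from a synthetic yeast display library in Saccharomyces cerevisiae BJ5465, induced with galactose for 36–48 hours and stained for 1 hour at 4 °C with 10% biotinylated, detergent-solubilized Sf9 membrane reagent. Cells were enriched on streptavidin microbeads and then FACS-sorted, with low and high (top ~1%) gates set on anti-HA fluorescence for expression and streptavidin fluorescence for reagent binding. Each polyreactivity label reflects the gate a clone came from. Genes were amplified by colony PCR, sequenced by MiSeq 2 × 250 and filtered by CDR length.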
For the sequence “QVQLVESGGGLVQAGGSLRLSCAASGFTFTHYAMGWYRQAPGKERELVAAISTSGGSTYYADSVKGRFTISRDNAKNTVYLQMNSLKPEDTAVYYCAARRDGWVQWGYYYWGQGTQVTVSS”, the “polyreactivity (PSR sort gate)” value was “low polyreactivity”.
Turning to “QVQLVESGGGLVQAGGSLRLSCSASGSIFGGYAMGWYRQAPGKEREFVAAISRRGASTYYADSVKGRYTISRDNAKNTVYLQMNSLKPEDTAVYYCNARAYGRIDGLSATYGYWGQGTQVTVSS”, the “polyreactivity (PSR sort gate)” value is listed as “high polyreactivity”.
For the sequence “QVQLVESGGGLVQAGGSLRLSCAASGIIFRYYAMGWYRQAPGKERELVAAITWSGGTYYADSVKGRFTISRDNAKKTVYLQMNSLKPEETAVYYCAAVYYGYRDRTDYGYWGQGTQVTVSS”, the “polyreactivity (PSR sort gate)” value was “high polyreactivity”.
As to “QVQLVESGGGLVQAGGSLRISCAASRSTFGIYAMGWYRQAPGKERELVAAISFRCGRTYYADSVKGRFTISRDNAKNTVYLQMISLKPEDNAVYYCAATWYWGNAYWGQGTQVTVSS”, the “polyreactivity (PSR sort gate)” value was “low polyreactivity”.
For the sequence “QVQLVESGGGLVQAGGSLRLSCAASGSNITPNAMGWYRQAPGKERELVAAISSSSDRTYYADSVKGRFTISRDNAKNTVYLQMNSLKPEDTAVYYCAAYAQKRYYWGQGTQVTVSS”, the “polyreactivity (PSR sort gate)” value is listed as “high polyreactivity”.
For “QVQLVESGGGLVQAGGSLRLSCAASGSTLNRYAMGWYRQAPGKERELVAAISISGGRTYYADSVKGRFTISRDNAKNTVYLQMNSLKPEDTAVYYCAADQYYYRYIRTSKYDYWGQGTQVTVSS”, the “polyreactivity (PSR sort gate)” value is “high polyreactivity”.
To “QVQLVESGGGLVQAGGSLRLSSAASGFTLDWYVIGWYRKAPWKERELVAAISSSGGRTYYADSVKGRFTISRDNAKNTVYLQMNSLKPEDTAVYYCAARNIYGGYPYGYDYWGQGTQVTVSS” belongs “high polyreactivity”.
In the case of “QVQLVESGGGLVQAGGSLRLSCAASGITFTYNAMGWYRQAPGKERELVAAITWSGGSTYYADSVKGRFTISRDNAKYTVYLQMNSLKPEDTAVYYCNAKHFAYSVAHPYLRYGYDYWGQGTQVTVSS”, the “polyreactivity (PSR sort gate)” value is given as “low polyreactivity”.
Consider “QVQLVESGGGLVQAGGSLRLSCAASGITLGRYAMGWYRQAPGKERELVAAISRSGGSTYYADSVKGRFTISRDNEKNTVYLLMNSLKPEDTAVYYCNRRVYPTSDYDYWGQGTQVTVSS”, for which the “polyreactivity (PSR sort gate)” value is “high polyreactivity”.
To “QVQLVDSGGGLVQAGGSLRLSCAASGITFYFNAMGWYRQAPGKERELVAAITRGGRTNYADSVKGRFTISRDNAKNTVYLQMNSLKPEDTAFYYCAAYIYRGRETNGPDYYYWGQGTQVTVSS” belongs “low polyreactivity”; to “QVQLVESGGGLVQAGGSVRLSCAASGRIFQPYAMGWYRQAPGKEREWVAAITRRAGSTYYADSVKGRFTISRDNALNTVYLQLNSLKPEDTAVSYCAARGLYWAYEMEYWGQGTQVTVSS”, “low polyreactivity”.
As to “QVQLVESGGGLVQAGGSLRLSCAASGSIFFLYAMGWYRQAPGKERELVAAISRSGVSTYYADSVKGRFTISRDNAKNTVYLQMNSLKPEDTAVYYCNRRVPVTRSRYYYWGQGTQVTVSS”, the “polyreactivity (PSR sort gate)” value is given as “high polyreactivity”.
To “QVQLVESGGGLVQAGGSLRLSCAASGRIFIENAMGWYRQAPGKERELVAAISGSGGRTYYADSVKGRFTISRDNAKNTVYLQMNSLKPEDTAVYYCAAVLRTQPRRYDYWGQGTQVTVSS” belongs “high polyreactivity”; to “QVQLVESGGGLVQAGGSLRLSCASSGFTFRSYAMGWYRQAPGKERELVAAIRWSGDSTYYADSVKGRFTISRDNAKNTVYLQMTSLKPEDTAVYYCAAGTYLRYGYWGQGTQVTVSS”, “high polyreactivity”; to “QVQLVESGGGLVQAGGSLRLSCAASGSIFRYYVMGWSRQAPGKERELVASISYSVGRTYYADSVKGRFTISRDNAKNTVYLQMNCLKPEDTAVYYCAADRYWPYYSAYYTSYRMDYWGQGTQVTVSS”, “high polyreactivity”.
To “QVQLVESGGGLVQAGGSLRLSCAASGRILPGYAMGWYRQAPGKERELVAAIRGNGDSTYYADSVKGRFTISRDNAKNTVYLQMNSLKPEDTAVYFCAARRVSTIARDSYRGRKYGYWGQGTQVTVSS” belongs “low polyreactivity”; to “QVQLVESGGGLVHAGGSLRLSCAASGYTFSRNAMGWYRQAPGKERELVAAITGSGGSTYYADSVKGRFTISRDNAKNTVYLQMNSLKPEDTAVYYCATEVKRGYVGFDYWGQGTQVTVSS”, “low polyreactivity”; to “QVQLVESGGGLVQAGGSLRLSCAASGLIFFYLNDMGWYRQAPGKERELVATITSGTSTTYADSVKGRFTISRDNAKNTVYLQMNSLKPEDTAVYYCNATDVGIITVGYGHGGYYWGQGTQVTVSS”, “low polyreactivity”.
To “QVQLVESGGGLVQAGGSLRLSCAASGFTFVINDMGLYRQAPGKERELVADITSGGDTYYADSVKGRFTISRDNAKNTVYLQMNSLKPEDTAVYYCAADIYPDWIYLLYGYWGQGTQVTVSS” belongs “low polyreactivity”.
Take “QVQLVESGGGLVQARGSLRLSCAASLLTFGKNDMGWYRQAPGKEREFVAAITSRGGYTYYADSVKGRFTISRDNAKNTVYSQMNSLKPEDTAVYYCNREYKRPSQRTEHSYWGQGTQVTVSS”: the “polyreactivity (PSR sort gate)” value is listed as “low polyreactivity”.
As for “QVQLVESGGGLVQAGGSLRLSCAASGSTFSRYAMGWYRQAPGKERELVAAISWRGGRTYYADSVKGRFTISRDNAKNTVYLQMNSLKPADTAVYYCNAVSYFTSQRYDYWGQGTQVTVSS”, the “polyreactivity (PSR sort gate)” value is “high polyreactivity”.
To “QVQLVESGGWLVQAGGSLRLSCAASGSSFYGYGMGSYRQAPGKERELVAANTGSGDTTYYADSVKGRFTNSRDNEKNTVYLQMNSLKPEDTAVYYCNARWHAEYDYWGQGTQVTVSS” belongs “low polyreactivity”.
“QVQLVESGGGLVQAGGSLRLRCAASGSIFYGYAMGWYRQAPGKESEFVAAITTTGGSTYYADSVKGRFTISRDNSKYTVYLQMNSLKPEDTAVYYCATSGDRLVWGQVTQVTVSS”: the “polyreactivity (PSR sort gate)” value is listed as “low polyreactivity”.
With “QVQLVESGGGLVQAGGSLRLSCAASGSIFVPNAMGWYSQAPGKERELVASISYSGTSTYYADSVKGRFTISRDNAKNTVYLQMNSLKPEDTAVYYCAVTWYPWYYGYWGQGTQVTVSS”, the “polyreactivity (PSR sort gate)” value is given as “high polyreactivity”.
Regarding “QVQLVESGGGLVQAGGSLRLSCAAYGRIFGGYAMGWYRQAPGKERELVAAISRRGGSTYYADSVKGRFTISRDNAKNTVYLQMNSLKPEDTAVYYCNAVLSVQARLTRVDYDYWGQGTEVTVSS”, the “polyreactivity (PSR sort gate)” value is on record as “high polyreactivity”.
To “QHQLVESGGGLVQAGGSLRLSCAASGRTSLDYAMGWYRQAPGKERELVSAIRSGGITNYADSVKGRFTISRDNAKNTVYLQLNSLKPEDTAVYYCAARVHRAYSTGSIVYYWGQGTQVNVSS” belongs “high polyreactivity”; to “QVQLVESGGGLVQAGGSLRLSCAASGITFVRNAMGWYRQAPGKERELVAAISGRGGITYYADSVKGRFTISRDNAKNTVYFQMNSLKPEDTAVYYCAASSAGSSYNYWGQGSQVTVSS”, “high polyreactivity”; to “QVQLVESGGGLVQAGGSLRLSCAASGLIFQVYDMGWYRQAPGKERELVAAISSGSNTNYADSVKGRFTISRDNAKNTVYLQMNSRKPEDTAVYYCAASWGYGALTPDMGYWGQGTQVTVSS”, “low polyreactivity”.
For the sequence “QVQLVESGGGLVQAGGSLRLSCAASGSTFYKYAMGWSRQAPGKERELVASITGGTRTYYADSVKGRFTISRDNAKNTVYLQMNSLKPEDTAVYYCNVVGGRYLYSAYDYWGQGTQVTVSS”, the “polyreactivity (PSR sort gate)” value is “low polyreactivity”.
Turning to “QVQLVESGGGLVQAGGSLRLSCAASGRTFNIYAMGWYRQAPGKERELVAAISKRGGTTYYADSVKGRFTISRDNAKNTVYLQMNSLKPEDTAVYYCAADRTNPYYGGMDYWGQGTQVTVSS”, the “polyreactivity (PSR sort gate)” value is reported as “high polyreactivity”.
In the case of “QVQLVESRGGLVQAGGSLRLSCAASVSIVGIYVMGRYRQAPGKERELVAGISTRGGSTYYADSVKGRFTIARDNAKNTVYLQMNSLKPEDTAVYYCAVRAWDPYTGKSDYWGQGTQVTVSS”, the “polyreactivity (PSR sort gate)” value was “low polyreactivity”.
Turning to “QVQLVESGGGLVQAGGSLRLSCAASGLTFGTYAMGWYRQAPGKERELVAAISGTGGTTYYADSVKGRFTISRDNAKNTVYLKMNSLKPEDTAVYYCNKRWRRPYPYDYWGQGTQVTVSS”, the “polyreactivity (PSR sort gate)” value is recorded as “high polyreactivity”.
For the sequence “QVQLVESGGGLVQAGGSLRLSCAASGRTLGGYTMGWYRQAPGKERELVAAITTGGSTNYADSVKGRFTISRDNAKNTVYLQMNSLKPEDTAVYYCATELVFDKRYWYDYWGQGTQVTVSS”, the “polyreactivity (PSR sort gate)” value was “low polyreactivity”.
Regarding “QVQLVESGGGLVQAGGSLRLSCAASGRTFHDYAMGWYRQAPGKERELVASISSGGSTYYADSVKGRFTISRDNAKNTVYLQMNSLKPEDTAVYYCAAYYYSTLYYRYDYWGQGTQVTVSS”, the “polyreactivity (PSR sort gate)” value is on record as “low polyreactivity”.
On to “QVQLVESGGGLVQAGGSLRLSCAASGRIFSKYAMGWYRQAPGKEMELDAAITRSGGSTYYADSVKGRFTISRDNAKNTVYLQMNSLKPEDTAVYYCNAGTYSTSVPYRYNYWGQGTQVTVSS”, for which the “polyreactivity (PSR sort gate)” value is “high polyreactivity”.
Consider “QFQLVESGRGLVQAGGSIRLSCAASGSIFRWYAMGWSRQAPGKERELVAAISYGGGSTYYADSVKGRFTISRDNAKNTVYLQMNRLKPEDTAVYYCNRGYPSTLYDYWGQGTQVTVSS”, for which the “polyreactivity (PSR sort gate)” value is “high polyreactivity”.
To “QFQLVESGGGLVQAGGSIRSSCAASGIIFWGNAMGWYRQAPGKESELVATITGRGGSTYYADSVKGRFTISRDNAKNTVYLQMNSLKPEDTAVYYCNADSSRYYRALEYWGQGTQVTVSS” belongs “low polyreactivity”; to “QVQLVESGGGLVQAGGSLRLSCAASGFTFYYYTMGWYRQAPGKEMELVADISSGDRTYYADSVKGRFTISRDNAKNTVYLQMNSLKPEDTAVYYCAAPAKYYTRFGHYILNQDYDSWGQGTQVTVSS”, “low polyreactivity”.
For “QVQLVESGGGLVQAGGSLRLSCAASGFIFSYYAMGWYRQAPGKERELVAAITSNGGSTYYADSVKGRFTISRDNAKNTVYLQMNSLKPEDTAVYYCNVKYRYWNQGYGSWGQGTQVTVSS”, the “polyreactivity (PSR sort gate)” value is “high polyreactivity”.
To “QVQLVESGVGLVQAGGSLRLSCAASGRTFDVYAMGWYRQAPGKERELVAAISRGGSTYYADSVKGRFTISRDNAKNTVYLQMNSLKPEDTAVYYCNKAYSSTRGYGYWGQGTQVTVSS” belongs “high polyreactivity”.
With “QVQLVESGGGLVQAGGSLRLSCAASGSTIGFYAMGWYRQAPGKERELVAVISSSSSTNYADSVKGRFTISRDNAKNTVYLQMNSLKPKIPAVYYCNAKWTTLFDYWGQGTQVTVSS”, the “polyreactivity (PSR sort gate)” value is listed as “high polyreactivity”.

Values taken from the nanobody polyreactivity screen of Harvey et al. (2022).
